B1: PRL-1 phosphatase (Drosophila melanogaster (Fruit fly)), O61722 (parent)
chain: MSITMRQKDLRPAPALIEYKGMKFLITDRPSDITINHYIMELKKNNVNTVVRVCEPSYNTDELETQGITVKDLAFEDGTFPPQQVVDEWFEVLKDKYQQNPEACVAVHCVAGLGRAPVLVALALIELGLKYEAAVEMIRDKRRGAINAKQLSFLEKYKPKARLKHKNGHKNSCSVQ

Variants of: B1
Conditions: with uex_drome uex
For MSITMRQKDLRPAPALIEYKGMKFLITDRPSDITINHYIMELKKNNVNTVVRVCEPSYNTDELETQGITVKDLAFEAGTFPPQQVVDEWFEVLKDKYQQNPEACVAVHSVAGLGRAPVLVALALIELGLKYEAAVEMIRDKRRGAINAKQLSFLEKYKPKARLKHKNGHKNSCSVQ [D77A;C109S], the “effect of a mutation on the interaction” value was “decreasing interaction strength”.

From IntAct's records for PubMed 31404830
